The text below walks through data of patent publication US20220380409A1.

In the assay the target is PfLDH protein (UniProt Q27743). The assay can be described thus: -.

Take primary ligand hevwh: the Kd was 5 µM.

The Kd is the constant that tells how readily two partners part at equilibrium. Read a low Kd as a tighter complex.
